Experimental data: the DeepSol protein solubility set

experiment: soluble on expression in E. coli; label from the status in PepcDB or PDB records

Sequence | soluble on expression in E. coli
MGSDKIHHHHHHMSFFDTLSGLSREQLRMALYSTTPAQVETAIEGEQGNLGHLLALLSPAAEEYLEPMAQRAAALTRQRFGHNIGLYLPLYLSNLCANECDYCGFTMSNKLKRKVLSHDELAAEMAVIKPQGFDSILLVSGEHETKVGIEYFADILPLVKAEFSHVAMEVQPLSREHYEILVEKGLDAVMLYQETYDPETYRRHHLRGNKQDYGYRLASPERIAQAGVDKIGLGVLLGLDDWRMDALLMGYHLDYLERRFWRSRYSISLPRLRPCVGGITPKVQLTDKGLVQLICAFRLFNEQLEISLSTRETPSLRDNLLGLGITQMSAGSRTEPGGYVNPAAQLDQFEISDERSAAEVASVLRSRGFTPVWKDWEAGWIGAG | not soluble
MGSDKIHHHHHHMESYYAVLDAMAAAPGDGVFAIIIDVEGSAYQKEGTWMWIEASGKTTGLLSGGCFEEAVAAHALDVLSNRQATSISFDLRAEDDWSWGQGAGCNGLVRIWLEPVTSNTKPDWLALKRCLDRGEHVFMARSITDPREQPFFQSETGERFGGYSSPPRPEWLKELHGTPFFRGRNGVYETEEDTFFIQHFWPKPRLTIFGAGPDAPPLVSAAKAAGFSVTVSDWRPAFCQPSHVPDADAWVVGFPHETIPKLHLTERDFVVIMTHQFERDRELMRWLADIPLAYLGVLGPRRRTDRLFPSGTAPPFVRSPIGLPIGARSPHEIAISITAELINVLRGGPMETAR | not soluble
SSPATVTEPLKAEPAEAPVPLLRVSPSSLQCEPGYLLPNSPVLGTGGVTGYEYLTNILSSKVYDVAYETPLQKAPKLSERLGVNVLKREDLQPVFSFKIRGAYNMMAKLPKEQLEKGVICSSAGNHAQGVALSAQRLGCDAVIVMPVTTPDIKKSVKRLGATVVLVGDSYDEAQAYAKKRAESEGRTFIPPFDHPDVIVGQGTVGMEINRQLKDNIHAIFVPVGGGGLIAGIAAYLKRVAPDIKIIGVEPLDANALALSLHHGQRVMLDQVGGFADGVAVKVVGEETYRLCEELIDGVVLVGRDAICASIKDMFEEKRSILEPAGALALAGAEAYCKYYGLKGENVVAITSGANMNFDRLRLVTELADVGRQREAVLATFMPEDPGSFKKFAEMVGPMNITEFKYRYNSDKERALVLYSVGLHTILELEGMVERMESADLQTINLTDNDLVKDHLRHLMGGRTNVHNELLCRFTFPEKPGALMKFLDAFSPRNISLFHYRAQGDTGANVLVGIQVPPDEVVEFEGRADSLGYEYAMESLNEAYQLIMH | soluble
MGSDKIHHHHHHMKIKKGDTEAEILTKGAYLYSFKIGNRDMILRGDLERPTRGGMAILIPFANRVKNAEYVFEGVKYTLPQNREGNAIHGLVMDKEFNVIGKSEDSISLQYILEHEGYPSKLDCVITYKVFKYGLRIKIVVRNVGNKRAPLTVGAHPYFITADDWRIVVEKEESIKKCISFNKIPTGELVKTKLEHTDYDDCFLISGGIQLHSSYSKVRITRRNMPFVQIYTGVRGSIAIEPMSGAPDAYHNGLGLKILEPNESSYFAFAFRFH | not soluble
MNVGDVVKGEVLAIDDDKQVIVGIQGTGVEGVVPLKELSTQRVDDVNEAAKVGDVLDLVVISRIGSDKENGSYLLSHRRLEARKVWDDVEKEYEAGHTIKAPVTQVVKGGLVVDAGVRGFIPASMIDDHYVEDLNAYKGQELELKIIEIEPSENRLILSHRAVVEKQREALEHHHHHH | soluble
MGSDKIHHHHHHVVLAVVVGRRTASLALRGRGGRSKGGIHLPQNRIRFGSVGCRDLRSQLRRLIEDETMSEPAEAFYLPLGDNRYEPTRATESPWDSQAQHGGPPTALLGHLLDTAAGPDKRLARITADFLGAIPRRPFRVDTVEIRPGRRIALLEARMVFDDRPAVVARAWAIETGPTPPATGEQLHPPALADADPALDLTGWGYGEAIEWRYTRGGYGTADSAADVWTRVRIPLIAGEKLTGLARTLVVADSANGVSAALPMEHWLFIPPSITVTLARFPDTEWVHMACRSHLSPDGLGVSHATLSDTDGYLGEVSQPLLVRPR | not soluble
MAHHHHHHMPSVATASTRAVLAYPTDDAKLLVELTPTDRVAGGGSCGGFSGGGPMTQSDLGVGGSRMLQSLLVTRNVRDHLLDLRFSEAALSAQVTLQGDTVRDLIADITAAQSTEVSIRIDPKVGVILRGEGGPYGEVEAHVHATSEALLSLSREQSASTRVYTHHLALACGARGGTGGGGSSGSSAGAGGTGGGRLRGTGASVRDGRLSNADYILMGLAASAAGAGSSGGGGGAAVGTLFGGFERLTLQINAQRQLSVLHTQRDHELKVFVTVVVMPLSSVCDML | not soluble
MARALADLSVNLQVPRVVPSPDSDSDTDLEDPSPRRSAGGLHRSQVIHSGHFMVSSPHSDSLTRRRDQEGPVGLADFGPRSIDPTLTHLFECLSLAYSGKLVSPKWKNFKGLKLLCRDKIRLNNAIWRAWYIQYVQRRKSPVCGFVTPLQGSEADEHRKPEAVILEGNYWKRRIEVVMREYHKWRIYYKKRVSGTDTCRPWVLRVLEGIARPHPNPYL | soluble
TPSRVEAFDNSNIHGTDPVSAMVTFLDGKPSKNDYRKYKIKTVEGPDDYATMREVIRRRYWRVLKEGLPMPDLILIDGGKGQIDSAKDVLTNELGLDIPVAGLAKDDKHRTSQLLFGDPLEIVPLERNSQEFYLLQRMQDEVHRFAITFHRQLRSKTGFQSILDGIPG | not soluble
MSLKYVDEFRNGDYAKTLVRLIQKLTKKKINIMEICGSHTMAIFRYGIKDILPSNIRLISGPGCPVCVTSQGYIDTALELSLSREVIIATFGDMIRVPGTKTSLMKRKAEGADIKIVYSPMDALTLAENNPLKKVVFLSVGFETTTPITAITILEAKKRGVKNIFFLTSNKMVPPVMRTLVEDKELNITGFLLPGNVSAIIGKKPYEFLSSEYNVSGVVTGFEPLDILKGLKVLIDIINNNASVIVNEYKRVVRDEGNVTALRYIKEVFEVTDSTWRGIGNIEKSGYKINTEYEQFDAVKQFNINYKECDSSSECRCGDILKGKITPIECSLFKKACTPDHPVGSCMVSYEGVCAAYYKFLNTEGHHHHHH | not soluble
QKTGIYDSLRLKLEIVKFYSPNERDAAFHSGNVEGTVIDYTGAAMQQAGGIDLQLVMRLDGYFRLVMSKDYTGESLETLKGKNLGISRNTVIEYTTDRIINTAGLDESEITKTEVNKIPLRLEMLRSGQIDAAVLPDPFITIAMADG | not soluble
MAHHHHHHMYLLQCEKKKKQKGKGQIGLTQVEYIGKPLIGGDFTLINHDGKVVTNEDFKKKFCLIYFGFTYCPDICPQELEKQTIVIERIVKKYGDVITPVFISVDPNRDTLAQVKHYCSSFSDRLVGLTGTKEQIRRVAKLFRVYYNEHVVGEEQTEEQTEKQKERQTDTQTEAQSGDPPRAPSYNYLIDHSIIHYLLDADGKFVDFFGKNCTTSEMVERISHYVDLHLQ | not soluble
MAHHHHHHMITGGSEKLLTKDSVAQYIRRVSSGLLYESAVLPIQFLIRGFRDIVPCEALASLGEQEMMSLLCGCRANDKKPLWTLAEIKSILVAEHGYQTDSPQMTMLQNILANRLTPAEQRSFLLFCTGCPRLPVGGVGALGAITVVKRSDFTMFHGSSGRNSGGSDGIGGADRKEQNPKQPGEWNSLPNETDWPLPSVNTCFRYLKLPPYPTEDLMYKKLRLSIMQGGETFQLS | not soluble
MDESAALRAFQDALRTQRPEFGQFFLARLLGLDISYPDGQCLIVFEPQDFLFNPQGSLHGGIIATVMDISMGHLLNHVQGAGLTLEMKTQYLKAVHQGTVYCRGEFLQRGRSVSFLKSTLTDAQGEPLAMATSTWKALSPLEHHHHHH | soluble
SNAMKFLTVSDDMNFLRQVNTLVAGKGDMDSVIIGEGDAKGLGSKVLYRAKKGTPFDAVSEGILKIAGNYDYIAIGSTEVGREIAGYLSFKTGFYTATEIFSLEFNGQKAHTKRFFYGGKTVIEEESDARILTVAPGVIEAKDLGTTPEIRDLEIGQSRIKITKFV | soluble
MAHHHHHHMLLSDAEAKITAVLKSLLDTPRTTYEVENLYQLNCERIAAVRAALADMSGDYVDQLCERCGEAEKQVQAKRAAGVASTAAADNAFSLDFALEEAEGQNEAEIESAISAAAHGSRRPKKSSGKEKSKKKEGEERHKKKEKRTLDDEPLVAPLPAGGGSCENNAADKATSSPSTRWVVLSRDDDLTSSEVLPALSTSDRVKCEAVPNTPLARVFFTEEVTRDGASCQCAVELYRCVVIAMRYGEPQLSWAECEKMMQSQVAAASKAGTIEDEGFDSRSAKRAGARSPKTSSDGDGEGAEDDSTSLVEEMTLSEQLIAQYDQAQQAEEEEEDADTLTLPRDISERFQQRLHGFTDEVWVILLCHGGYFAGGVFARGTCITHKAFQRYVVRKKQGGKQSSNAKDAGSYNSVGSQIRAVQEVKWRVDVRDILLDWMPYIQAASFILYAAPGPQNRAVLTDFSLLPAVASVGGRKGVSPIQLKDPRVSRVPLTTHRPTFEEVRRIYGVCSRCSLLYVRQEEAQERNTN | not soluble
MGSDKIHHHHHHMKEVFDLRGRVALVTGGSRGLGFGIAQGLAEAGCSVVVASRNLEEASEAAQKLTEKYGVETMAFRCDVSNYEEVKKLLEAVKEKFGKLDTVVNAAGINRRHPAEEFPLDEFRQVIEVNLFGTYYVCREAFSLLRESDNPSIINIGSLTVEEVTMPNISAYAASKGGVASLTKALAKEWGRYGIRVNVIAPGWYRTKMTEAVFSDPEKLDYMLKRIPLGRTGVPEDLKGVAVFLASEEAKYVTGQIIFVDGGWTAN | soluble
MKPMSDYDIPTTENLYFQGAMVTTPGKPNDPDNPNNNYIKPTKVNKNKEGLNIDGKEVLAGSTNYYELTWDLDQYKGDKSSKEAIQNGFYYVDDYPEEALDVRPDLVKVADEKGNQVSGVSVQQYDSLEAAPKKVQDLLKKANITVKGAFQLFSADNPEEFYKQYVATGTSLVITDPMTVKSEFGKTGGKYENKAYQIDFGNGYATEVVVNNVPKITPKKDVTVSLDPTSENLDGQTVQLYQTFNYRLIGGLIPQNHSEELEDYSFVDDYDQAGDQYTGNYKTFSSLNLTMKDGSVIKAGTDLTSQTTAETDATNGIVTVRFKEDFLQKISLDSPFQAETYLQMRRIAIGTFENTYVNTVNKVAYASNTVRTTT | soluble
MRVLIVKTSSMGDVLHTLPALTDAQQAIPGIKFDWVVEEGFAQIPSWHAAVERVIPVAIRRWRKAWFSAPIKAERKAFREALQAKNYDAVIDAQGLVKSAALVTRLAHGVKHGMDWQTAREPLASLFYNRKHHIAKQQHAVERTRELFAKSLGYSKPQTQGDYAIAQHFLTNLPTDAGEYAVFLHATTRDDKHWPEEHWRELIGLLADSGIRIKLPWGAPHEEERAKRLAEGFAYVEVLPKMSLEGVARVLAGAKFVVSVDTGLSHLTAALDRPNITVYGPTDPGLIGGYGKNQMVCRAPGNELSQLTANAVKQFIEENAEKAAMI | soluble
MSLEALSSYQQRNNQQLDQWLNRIPFQTLPLIEAMRYGLLLGGKRARPYLVYITGQMLGCELSDLDTPASAVECIHAYSLIHDDLPAMDDDELRRGKPTCHIQFDEATAILTGDALQTLAFTILAEGDLSAAGETQRVAMLQALAEASGAQGMCLGQALDLAAENRLISLEELETIHRNKTGALMRCAIRLGALAAGEKGRAMLPHLDRYAEAVGLAFQVQDDILDIISDTETLGKPQGSDQELNKSTYPALLGLEGAQQKAHTLLQEALLALEAIPYNTEHLEEFARYVVERKNEGHHHHHH | soluble
MELMIGRVVKSHGIRGEVAIEVTTEEPEIRFAQGEVLNGRQGGKEHSLTIASVRPHQNRLLVKFKEIADRTAADSLRGTRFFAAPLDDDVDDGFYDHELEGLAVIHGEEKIGEVSGVIHGPAQSLLEVTLESGKEVLIPFVHDIVPEVDLDAGTCVITPPEGLLELLEHHHHHH | soluble
